Results from US20160046724A1 (Novartis, published 2016).

T1: BCMA-Fc antigen (UniProt Q02223 5-51, limits assumed)
T1 construct: Bought reagent; also called BCMA fc fusion protein; recombinant BCMA-Fc; not shown: Fc region
T1 chain (looked up): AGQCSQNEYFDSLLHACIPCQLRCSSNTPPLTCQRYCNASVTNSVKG

B1: BCMA-12 CAR (other)
chain: EVQLLESGGGLVQPGGSLRLSCAVSGFALSNHGMSWVRRAPGKGLEWVSGIVYSGSTYYAASVKGRFTISRDNSRNTLYLQMNSLRPEDTAIYYCSAHGGESDVWGQGTTVTVSSASGGGGSGGRASGGGGSDIVMTQTPLSLSVTPGQPASISCKSSQSLLRNDGKTPLYWYLQKAGQPPQLLIYEVSNRFSGVPDRFSGSGSGTDFTLKISRVEAEDVGAYYCMQNIQFPSFGGGTKLEIKTTTPAPRPPTPAPTIASQPLSLRPEACRPAAGGAVHTRGLDFACDIYIWAPLAGTCGVLLLSLVITLYCKRGRKKLLYIFKQPFMRPVQTTQEEDGCSCRFPEEEEGGCELRVKFSRSADAPAYKQGQNQLYNELNLGRREEYDVLDKRRGRDPEMGGKPRRKNPQEGLYNELQKDKMAEAYSEIGMKGERRRGKGHDGLYQGLSTATKDTYDALHMQALPPR
notes: also called 139111 Full CAR; HU13-58ZB
B2: BCMA-9 CAR (other)
chain: QVQLVESGGGLVKPGGSLRLSCAASGFTFSDYYMSWIRQAPGKGLEWVSYISSSGSTIYYADSVKGRFTISRDNAKNSLYLQMNSLRAEDTAVYYCARESGDGMDVWGQGTTVTVSSASGGGGSGGRASGGGGSDIQMTQSPSSLSASVGDRVTITCRASQSISSYLNWYQQKPGKAPKLLIYAASSLQSGVPSRFSGSGSGTDFTLTISSLQPEDFATYYCQQSYTLAFGQGTKVDIKTTTPAPRPPTPAPTIASQPLSLRPEACRPAAGGAVHTRGLDFACDIYIWAPLAGTCGVLLLSLVITLYCKRGRKKLLYIFKQPFMRPVQTTQEEDGCSCRFPEEEEGGCELRVKFSRSADAPAYKQGQNQLYNELNLGRREEYDVLDKRRGRDPEMGGKPRRKNPQEGLYNELQKDKMAEAYSEIGMKGERRRGKGHDGLYQGLSTATKDTYDALHMQALPPR
notes: also called 139108 Full CAR; OG62-93QB
B3: BCMA-1 CAR (other)
chain: QVQLVQSGAEVRKTGASVKVSCKASGYIFDNFGINWVRQAPGQGLEWMGWINPKNNNTNYAQKFQGRVTITADESTNTAYMEVSSLRSEDTAVYYCARGPYYYQSYMDVWGQGTMVTVSSASGGGGSGGRASGGGGSDIVMTQTPLSLPVTPGEPASISCRSSQSLLHSNGYNYLNWYLQKPGQSPQLLIYLGSKRASGVPDRFSGSGSGTDFTLHITRVGAEDVGVYYCMQALQTPYTFGQGTKLEIKTTTPAPRPPTPAPTIASQPLSLRPEACRPAAGGAVHTRGLDFACDIYIWAPLAGTCGVLLLSLVITLYCKRGRKKLLYIFKQPFMRPVQTTQEEDGCSCRFPEEEEGGCELRVKFSRSADAPAYKQGQNQLYNELNLGRREEYDVLDKRRGRDPEMGGKPRRKNPQEGLYNELQKDKMAEAYSEIGMKGERRRGKGHDGLYQGLSTATKDTYDALHMQALPPR
notes: also called 139100 Full CAR; ER95-03VA
B4: BCMA-4 CAR (other)
chain: QVQLVESGGGLVQPGRSLRLSCAASGFTFSNYAMSWVRQAPGKGLGWVSGISRSGENTYYADSVKGRFTISRDNSKNTLYLQMNSLRDEDTAVYYCARSPAHYYGGMDVWGQGTTVTVSSASGGGGSGGRASGGGGSDIVLTQSPGTLSLSPGERATLSCRASQSISSSFLAWYQQKPGQAPRLLIYGASRRATGIPDRFSGSGSGTDFTLTISRLEPEDSAVYYCQQYHSSPSWTFGQGTKLEIKTTTPAPRPPTPAPTIASQPLSLRPEACRPAAGGAVHTRGLDFACDIYIWAPLAGTCGVLLLSLVITLYCKRGRKKLLYIFKQPFMRPVQTTQEEDGCSCRFPEEEEGGCELRVKFSRSADAPAYKQGQNQLYNELNLGRREEYDVLDKRRGRDPEMGGKPRRKNPQEGLYNELQKDKMAEAYSEIGMKGERRRGKGHDGLYQGLSTATKDTYDALHMQALPPR
notes: also called 139103 Full CAR; JF32-78IB
B5: BCMA-14 CAR (other)
chain: EVQLVETGGGLVQPGGSLRLSCAVSGFALSNHGMSWVRRAPGKGLEWVSGIVYSGSTYYAASVKGRFTISRDNSRNTLYLQMNSLRPEDTAIYYCSAHGGESDVWGQGTTVTVSSASGGGGSGGRASGGGGSETTLTQSPATLSVSPGERATLSCRASQSVGSNLAWYQQKPGQGPRLLIYGASTRATGIPARFSGSGSGTEFTLTISSLQPEDFAVYYCQQYNDWLPVTFGQGTKVEIKTTTPAPRPPTPAPTIASQPLSLRPEACRPAAGGAVHTRGLDFACDIYIWAPLAGTCGVLLLSLVITLYCKRGRKKLLYIFKQPFMRPVQTTQEEDGCSCRFPEEEEGGCELRVKFSRSADAPAYKQGQNQLYNELNLGRREEYDVLDKRRGRDPEMGGKPRRKNPQEGLYNELQKDKMAEAYSEIGMKGERRRGKGHDGLYQGLSTATKDTYDALHMQALPPR
notes: also called 139113 Full CAR; HJ64-62PB
B6: BCMA-5 CAR (other)
chain: EVQLLETGGGLVQPGGSLRLSCAVSGFALSNHGMSWVRRAPGKGLEWVSGIVYSGSTYYAASVKGRFTISRDNSRNTLYLQMNSLRPEDTAIYYCSAHGGESDVWGQGTTVTVSSASGGGGSGGRASGGGGSEIVLTQSPATLSVSPGESATLSCRASQSVSSNLAWYQQKPGQAPRLLIYGASTRASGIPDRFSGSGSGTDFTLTISSLQAEDVAVYYCQQYGSSLTFGGGTKVEIKTTTPAPRPPTPAPTIASQPLSLRPEACRPAAGGAVHTRGLDFACDIYIWAPLAGTCGVLLLSLVITLYCKRGRKKLLYIFKQPFMRPVQTTQEEDGCSCRFPEEEEGGCELRVKFSRSADAPAYKQGQNQLYNELNLGRREEYDVLDKRRGRDPEMGGKPRRKNPQEGLYNELQKDKMAEAYSEIGMKGERRRGKGHDGLYQGLSTATKDTYDALHMQALPPR
notes: also called 139104 Full CAR; AR99-08FA
B7: BCMA-7 CAR (other)
chain: EVQLVETGGGLVQPGGSLRLSCAVSGFALSNHGMSWVRRAPGKGLEWVSGIVYSGSTYYAASVKGRFTISRDNSRNTLYLQMNSLRPEDTAIYYCSAHGGESDVWGQGTTVTVSSASGGGGSGGRASGGGGSEIVMTQSPATLSVSPGERATLSCRASQSVSSKLAWYQQKPGQAPRLLMYGASIRATGIPDRFSGSGSGTEFTLTISSLEPEDFAVYYCQQYGSSSWTFGQGTKVEIKTTTPAPRPPTPAPTIASQPLSLRPEACRPAAGGAVHTRGLDFACDIYIWAPLAGTCGVLLLSLVITLYCKRGRKKLLYIFKQPFMRPVQTTQEEDGCSCRFPEEEEGGCELRVKFSRSADAPAYKQGQNQLYNELNLGRREEYDVLDKRRGRDPEMGGKPRRKNPQEGLYNELQKDKMAEAYSEIGMKGERRRGKGHDGLYQGLSTATKDTYDALHMQALPPR
notes: also called 139106 Full CAR; QR91-12ZA
B8: BCMA-2 CAR (other)
chain: QVQLQESGGGLVQPGGSLRLSCAASGFTFSSDAMTWVRQAPGKGLEWVSVISGSGGTTYYADSVKGRFTISRDNSKNTLYLQMNSLRAEDTAVYYCAKLDSSGYYYARGPRYWGQGTLVTVSSASGGGGSGGRASGGGGSDIQLTQSPSSLSASVGDRVTITCRASQSISSYLNWYQQKPGKAPKLLIYGASTLASGVPARFSGSGSGTHFTLTINSLQSEDSATYYCQQSYKRASFGQGTKVEIKTTTPAPRPPTPAPTIASQPLSLRPEACRPAAGGAVHTRGLDFACDIYIWAPLAGTCGVLLLSLVITLYCKRGRKKLLYIFKQPFMRPVQTTQEEDGCSCRFPEEEEGGCELRVKFSRSADAPAYKQGQNQLYNELNLGRREEYDVLDKRRGRDPEMGGKPRRKNPQEGLYNELQKDKMAEAYSEIGMKGERRRGKGHDGLYQGLSTATKDTYDALHMQALPPR
notes: also called 139101 Full CAR; UR96-08PA
B9: BCMA-11 CAR (other)
chain: QVQLVQSGGGLVKPGGSLRLSCAASGFTFSDYYMSWIRQAPGKGLEWVSYISSSGNTIYYADSVKGRFTISRDNAKNSLYLQMNSLRAEDTAVYYCARSTMVREDYWGQGTLVTVSSASGGGGSGGRASGGGGSDIVLTQSPLSLPVTLGQPASISCKSSESLVHNSGKTYLNWFHQRPGQSPRRLIYEVSNRDSGVPDRFTGSGSGTDFTLKISRVEAEDVGVYYCMQGTHWPGTFGQGTKLEIKTTTPAPRPPTPAPTIASQPLSLRPEACRPAAGGAVHTRGLDFACDIYIWAPLAGTCGVLLLSLVITLYCKRGRKKLLYIFKQPFMRPVQTTQEEDGCSCRFPEEEEGGCELRVKFSRSADAPAYKQGQNQLYNELNLGRREEYDVLDKRRGRDPEMGGKPRRKNPQEGLYNELQKDKMAEAYSEIGMKGERRRGKGHDGLYQGLSTATKDTYDALHMQALPPR
notes: also called 139110 Full CAR; UG65-93FB
B10: BCMA-3 CAR (other)
chain: QVQLVQSGAEVKKPGASVKVSCKASGYTFSNYGITWVRQAPGQGLEWMGWISAYNGNTNYAQKFQGRVTMTRNTSISTAYMELSSLRSEDTAVYYCARGPYYYYMDVWGKGTMVTVSSASGGGGSGGRASGGGGSEIVMTQSPLSLPVTPGEPASISCRSSQSLLYSNGYNYVDWYLQKPGQSPQLLIYLGSNRASGVPDRFSGSGSGTDFKLQISRVEAEDVGIYYCMQGRQFPYSFGQGTKVEIKTTTPAPRPPTPAPTIASQPLSLRPEACRPAAGGAVHTRGLDFACDIYIWAPLAGTCGVLLLSLVITLYCKRGRKKLLYIFKQPFMRPVQTTQEEDGCSCRFPEEEEGGCELRVKFSRSADAPAYKQGQNQLYNELNLGRREEYDVLDKRRGRDPEMGGKPRRKNPQEGLYNELQKDKMAEAYSEIGMKGERRRGKGHDGLYQGLSTATKDTYDALHMQALPPR
notes: Chimeric antigen receptor; 0.0 % CAR+ on JNL cells by BCMA-Fc detection; also called 139102 Full CAR; KR98-03KA
B11: BCMA-13 CAR (other)
chain: QVQLVESGGGLVQPGGSLRLSCAVSGFALSNHGMSWVRRAPGKGLEWVSGIVYSGSTYYAASVKGRFTISRDNSRNTLYLQMNSLRPEDTAIYYCSAHGGESDVWGQGTTVTVSSASGGGGSGGRASGGGGSDIRLTQSPSPLSASVGDRVTITCQASEDINKFLNWYHQTPGKAPKLLIYDASTLQTGVPSRFSGSGSGTDFTLTINSLQPEDIGTYYCQQYESLPLTFGGGTKVEIKTTTPAPRPPTPAPTIASQPLSLRPEACRPAAGGAVHTRGLDFACDIYIWAPLAGTCGVLLLSLVITLYCKRGRKKLLYIFKQPFMRPVQTTQEEDGCSCRFPEEEEGGCELRVKFSRSADAPAYKQGQNQLYNELNLGRREEYDVLDKRRGRDPEMGGKPRRKNPQEGLYNELQKDKMAEAYSEIGMKGERRRGKGHDGLYQGLSTATKDTYDALHMQALPPR
notes: also called 139112 Full CAR; KG66-98AB

Biological target: T1, BCMA-Fc antigen
Experiment: flow cytometry of CAR-transduced JNL cells stained with BCMA-Fc antigen
Description: Jurkat-NFAT-luciferase (JNL) cells transduced with BCMA CAR constructs were evaluated for activation in response to BCMA-expressing target cell lines. Small-scale viral supernatant samples were generated in HEK293T cells for transduction of JNL cells. On Day 3 following transduction, BCMA CAR-transduced JNL cells were incubated with target cells at an effector-to-target (E:T) ratio of 6:1. Target cell lines were: K562-BCMA (engineered to stably express BCMA), K562 (parental line), and BCMA positive multiple myeloma cell lines, NCI-H929 and RPMI 8226. JNL activation was measured using Bright-Glo substrate (Promega) on Day 4. CAR expression on transduced JNL was assessed on Day 7 with BCMA-Fc antigen and Biotin-Protein L reagent (Table 7).

| Binder | % CAR+ (BCMA-Fc detection) [%] |
| --- | --- |
| B1 | 23.4 |
| B2 | 54.7 |
| B3 | 72.1 |
| B4 | 49.5 |
| B5 | 31.8 |
| B6 | 28.9 |
| B7 | 30.4 |
| B8 | 32 |
| B9 | 42.7 |
| B10 | 0 |
| B11 | 32.7 |
